Target: F protein on live RSV virus (strain not stated) (respiratory syncytial virus)
Assay: cell-based or functional assay

Synagis® (palivizumab) (antibody) was tested, and the IC50, plaque neutralization assay on HEp2 cells with rabbit complement was 0.3 µg/mL and the affinity corresponding to the IC50 of the plaque neutralization assay was 2 nM.
